# Measurements reported in publication PMC6597003 (ACS chemical biology, 2018).
# Ends that are not written are not given here.
# Molecular target: ephrin type-A receptor 2 ligand-binding domain (UniProt P29317 23-202)
# Assay: DELFIA displacement assay
# Conditions: not given
# Chain of ephrin type-A receptor 2 ligand-binding domain (P29317 23-202): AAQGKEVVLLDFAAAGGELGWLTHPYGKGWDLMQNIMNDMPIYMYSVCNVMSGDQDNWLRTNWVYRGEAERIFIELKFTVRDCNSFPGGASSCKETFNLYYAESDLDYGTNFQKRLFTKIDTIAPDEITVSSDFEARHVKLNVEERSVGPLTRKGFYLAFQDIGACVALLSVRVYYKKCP
row,IC50,Molecule
1,> 100 µM,FTAFPLGFEMMS-NH2 [135B9]
2,> 200 µM,YSAYPLSVEMMS-NH2 [135B2]
3,> 200 µM,YSLYPDSVPFRP-NH2 [135D8]
4,> 100 µM,YSCYPDSVPFRP-NH2 [135D6]
5,> 500 µM,YDYVAVAGPAEY-NH2 [135A1 (1C1)]
6,> 100 µM,FTAFPLGFEFRP-NH2 [135B8]
7,> 100 µM,YSAYPLSVEFRP-NH2 [135A7]
8,> 100 µM,YSAYPDSVEMMS-NH2 [135B1]
9,> 200 µM,YSVYPDSVPFRP-NH2 [135D7]

# System: EphA2
# Assay: not given
# Conditions: recently reported by the authors; cited from earlier work
row,Molecule,concentration required in cell-based assays to activate the receptor
1,CSCC[C@H](NC(=O)[C@H](CCSC)NC(=O)[C@@H]1CCCN1C(=O)[C@@H](NC(=O)[C@H](CO)NC(=O)[C@H](CC(=O)O)NC(=O)[C@@H]1CCCN1C(=O)[C@H](Cc1ccc(O)cc1)NC(=O)[C@H](C)NC(=O)[C@H](CO)NC(=O)[C@@H](N)Cc1ccc(O)cc1)C(C)C)C(=O)N[C@@H](CO)C(N)=O [YSA],tripledigit micromolar concentration
